The numbers were not newly measured in article PMC11815838, which cites them from elsewhere.

The data set deals with Her2 (ErbB2) ectodomain (UniProt P04626). The data set is described as follows: SPR (surface plasmon resonance). To be noted: not stated (pH 7.4 and pH 5.0 running conditions; buffers given only in ref 2).

Take bH1 Fab variant P5 (H-R58H) H-R58H: the KD reads like this: (pH 5.0) 0.098 µM; (pH 7.4) 0.31 µM. For bH1 Fab variant P4 (H-Y56H) H-Y56H, where the note is “pH 7.4”, the equilibrium dissociation constant (KD) is 0.17 µM. On to bH1 Fab variant P8 (L-S30bH) L-S30bH, for which the KD reads like this: (pH 5.0) 0.0099 µM; (pH 7.4) 0.0034 µM. As to bH1 Fab variant P2 (H-Y33H) H-Y33H, the KD is, setting by setting: (pH 5.0) 1.2 µM; (pH 7.4) 0.12 µM. On to bH1 Fab variant P1 (H-N28H) H-N28H, for which the KD is, setting by setting: (pH 5.0) 0.016 µM; (pH 7.4) 0.0035 µM. On to bH1 Fab variant P7 (L-R30aH) L-R30aH, for which the KD is, setting by setting: (pH 5.0) 0.017 µM; (pH 7.4) 0.0057 µM. On to bH1 Fab variant P6 (H-Y100aH) H-Y100aH, for which, where the note is “pH 7.4”, the KD was 0.01 µM.

By KD is commonly meant the free concentration of one partner at which half of the binding sites on the other are occupied at equilibrium, for simple one-to-one binding.
